Assay [1] concerns the target CD86-mIgG (Ancell, Inc) (UniProt P42081). The experiment in a line: SPR (BIAcore T100), CD86-mIgG immobilized on CM5; first site. Background: SPR reads the build-up and loss of mass on a sensor chip optically.
Assay [2] shares this target. In words: SPR (BIAcore T100), CD86-mIgG immobilized on CM5; second site.
The target is the same in assay [3]. In words: SPR (BIAcore T100), CD86-mIgG immobilized on CM5; steady-state equilibrium fit.
The target of assay [4] is T1, CD80-mIg (Ancell Catalog #510-020) (UniProt P33681 35-242).
T1 construct: Bought reagent; also called CD80-mIgG; sCD80
T1 sequence (looked up): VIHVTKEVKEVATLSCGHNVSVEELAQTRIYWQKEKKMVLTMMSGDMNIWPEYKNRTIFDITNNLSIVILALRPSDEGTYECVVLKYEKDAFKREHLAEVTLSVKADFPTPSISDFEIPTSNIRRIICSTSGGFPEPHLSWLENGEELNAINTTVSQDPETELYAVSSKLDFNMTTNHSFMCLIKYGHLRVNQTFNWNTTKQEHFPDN
The experiment in a line: SPR (BIAcore T100), CD80-mIgG immobilized on CM5; bivalent analyte model, first site. How it is done:
(§1) Surface plasmon resonance (SPR) measurements were performed on a BIAcore™ T100 SPR (Pharmacia Biotech AB, Uppsala) using HBS-EP+ (GE Healthcare) as a running buffer. […] CTLA4-containing constructs were injected for 150 seconds, at a flow rate of 10 μl/min, in a series of concentrations from 5 nM to 1 μM. Dissociation was monitored for 600 seconds, and the surface was regenerated by injecting 50 mM sodium citrate, 500 mM sodium chloride, pH 4.0, for 60 seconds. […] Data were analyzed using BiaEvaluation for the T100 software (version 2.0.1, GE Healthcare).

Assay [5] deals with T2, Murine CD86-mIgG (R&D Systems, Inc) (murine, UniProt P42082 24-244, limits assumed).
T2 construct: also called muCD86
T2 sequence (looked up): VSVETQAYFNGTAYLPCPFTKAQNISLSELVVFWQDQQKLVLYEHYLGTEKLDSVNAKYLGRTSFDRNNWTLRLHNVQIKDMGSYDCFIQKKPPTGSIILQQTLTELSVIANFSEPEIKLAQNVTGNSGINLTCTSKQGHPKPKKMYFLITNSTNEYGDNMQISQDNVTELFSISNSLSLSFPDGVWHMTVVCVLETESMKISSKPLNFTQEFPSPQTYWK
In words: SPR (BIAcore T100), murine CD86-mIgG immobilized on CM5; steady-state equilibrium, multiple Rmax fit. How it is done: (§2) SPR measurements were performed on a BIAcore™ T100 SPR (Pharmacia Biotech AB, Uppsala) using HBS-EP+ (GE Healthcare) as a running buffer. Murine CD86-mIgG (25 μg/mL in 10 mM sodium acetate, pH 4.0, R&D Systems, Inc) was directly immobilized onto a CM5 chip using standard amine coupling chemistry (Biacore Amine Coupling Kit, GE Healthcare), with final immobilization levels of 150, 493, and 746 Ru. CTLA4-containing constructs were injected for 150 seconds, at a flow rate of 10 μl/min, in a series of concentrations from 4 nM to 8 μM. Dissociation was monitored for 600 seconds (CTLA4 constructs) or 1200 seconds (GL1 constructs), and the surface was regenerated by injecting 10 mM glycine, pH 1.7, for 60 seconds. […] Data were analyzed using BiaEvaluation for the T100 software (version 2.0.1, GE Healthcare).

Assay [6] concerns the target T3, CD86-mIgG (Ancell, Inc) (UniProt P42081 24-247, limits assumed).
T3 construct: Bought reagent
T3 sequence (looked up): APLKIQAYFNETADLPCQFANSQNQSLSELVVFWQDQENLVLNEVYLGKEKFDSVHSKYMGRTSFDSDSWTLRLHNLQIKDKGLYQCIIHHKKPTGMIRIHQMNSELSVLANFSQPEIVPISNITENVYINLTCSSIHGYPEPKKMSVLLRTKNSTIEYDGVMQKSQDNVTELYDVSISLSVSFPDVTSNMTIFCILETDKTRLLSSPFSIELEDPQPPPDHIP
In words: SPR (BIAcore T100), CD86-mIgG immobilized on CM5; bivalent analyte model, first site. How it is done:
(§3) SPR measurements were performed on a BIAcore™ T100 SPR (Pharmacia Biotech AB, Uppsala) using HBS-EP+ (GE Healthcare) as a running buffer. […] CTLA4-containing constructs were injected for 150 seconds, at a flow rate of 10 μl/min, in a series of concentrations from 4 nM to 10 μM. Dissociation was monitored for 600 seconds, and the surface was either regenerated by injecting 50 mM sodium citrate, 500 mM sodium chloride, pH 5.0, for 60 seconds (wild type CTLA4) or 10 mM glycine, pH 1.7 (L104E A29Y CTLA4). […] Data were analyzed using BiaEvaluation for the T100 software (version 2.0.1, GE Healthcare).

Assay [7] has as its target T3, CD86-mIgG (Ancell, Inc). In words: SPR (BIAcore T100), CD86-mIgG immobilized on CM5; steady-state equilibrium fit. How it is done: as §3
SPR measurements were performed as listed above, with the following exceptions: HBS-P+ (GE Healthcare) was used as a running buffer; dissociation was monitored for 1200 seconds; and the surface was regenerated by injecting 10 mM glycine, pH 1.7, for 60 seconds.

Assay [8] deals with T2, Murine CD86-mIgG (R&D Systems, Inc). In words: SPR (BIAcore T100), murine CD86-mIgG immobilized on CM5; bivalent analyte model, second site. How it is done: as §2
Assay [9] deals with T1, CD80-mIg (Ancell Catalog #510-020). In words: SPR (BIAcore T100), CD80-mIgG immobilized on CM5; bivalent analyte model, second site. How it is done:
as §1

For assay [10], the target named is T2, Murine CD86-mIgG (R&D Systems, Inc). In words: SPR (BIAcore T100), murine CD86-mIgG immobilized on CM5; bivalent analyte model, first site. How it is done: as §2
In assay [11] the target is T1, CD80-mIg (Ancell Catalog #510-020). The experiment in a line: SPR (BIAcore T100), CD80-mIgG immobilized on CM5; steady-state equilibrium fit. How it is done: as §1
In assay [12] the target is T4, PD1 ectodomain fused to a C-terminal AviTag, biotinylated (biotinylated on the AviTag with the BirA enzyme).
T4 construct: also called biotinylated PD1
T4 chain: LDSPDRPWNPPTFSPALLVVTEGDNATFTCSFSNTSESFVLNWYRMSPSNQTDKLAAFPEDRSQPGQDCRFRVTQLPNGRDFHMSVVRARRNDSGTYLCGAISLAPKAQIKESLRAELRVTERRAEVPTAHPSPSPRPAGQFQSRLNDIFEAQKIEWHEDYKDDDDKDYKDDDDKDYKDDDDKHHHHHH
In words: SPR (BIAcore T100), biotinylated PD1 captured on neutravidin; bivalent analyte model, first site. How it is done:
(§4) SPR measurements were performed on a BIAcore™ T100 SPR (Pharmacia Biotech AB, Uppsala) using HBS-P+ (GE Healthcare) as a running buffer. […] PDL1/2-containing constructs were injected for 120 seconds, at a flow rate of 30 μl/min, in a series of concentrations from 6 nM to 2 μM. Dissociation was monitored for 1200 seconds, and the surface was regenerated by injecting 50 mM NaOH, 1M NaCl for 30 seconds.
(§5) Data were analyzed using BiaEvaluation for the T100 software (version 2.0.1, GE Healthcare).

The target of assay [13] is T4, PD1 ectodomain fused to a C-terminal …. In words: SPR (BIAcore T100), biotinylated PD1 captured on neutravidin; steady-state equilibrium fit. How it is done: as §4, §5

By koff is commonly meant the rate constant with which the complex falls apart. A lower koff goes with slow dissociation. Usually kon stands for the second-order rate constant of association. A low value points to slower complex formation. What is called Kd is a measure of binding affinity in units of concentration. Read a high Kd as a looser complex.

In the assay with CD86-mIgG (Ancell, Inc) [1], muIL 10-Ig returned a koff of 0.00018 s⁻¹ and a kon of 94100 M⁻¹ s⁻¹. In the assay with CD86-mIgG (Ancell, Inc) [2], this molecule gave a Second Site ka of 0.0203 s⁻¹ and a Second Site kd of 0.0722 s⁻¹. This molecule also came in with a Kd with CD86-mIgG (Ancell, Inc) [3] of 50.6 nM.

B1: CTLA4-Fc fusion containing the L104E A29Y mutations, analogous to belatacept (Fc fusion)
chain: MHVAQPAVVLASSRGIASFVCEYASPGKYTEVRVTVLRQADSQVTEVCAATYMMGNELTFLDDSICTGTSSGNQVNLTIQGLRAMDTGLYICKVELMYPPPYYEGIGNGTQIYVIDPEPCPDSDLEPKSSDKTHTCPPCPAPEAAGAPSVFLFPPKPKDTLMISRTPEVTCVVVDVSHEDPEVKFNWYVDGVEVHNAKTKPREEQYNSTYRVVSVLTVLHQDWLNGKAYACAVSNKALPAPIEKTISKAKGQPREPQVYTLPPSRDELTKNQVSLTCLVKGFYPSDIAVEWESNGQPENNYKTTPPVLDSDGSFFLYSKLTVDKSRWQQGNVFSCSVMHEALHNHYTQKSLSLSPG
notes: the mutations are in the entry
Regarding B1, the koff worked out at 0.00373 s⁻¹ in assay [4]; 0.0102 s⁻¹ in the assay with CD86-mIgG (Ancell, Inc) [6]; 0.0787 s⁻¹ in [10]. Further, the kon in [4] was 155000 M⁻¹ s⁻¹; in the assay with CD86-mIgG (Ancell, Inc) [6], 84700 M⁻¹ s⁻¹; in assay [10], 27800 M⁻¹ s⁻¹. The Kd is 920 nM in [5]; 772 nM with CD86-mIgG (Ancell, Inc) [7]; 13.3 nM in assay [11]. The “Second Site ka” value in assay [8] is 0.0728 s⁻¹; in [9] it was 0.00102 s⁻¹. Besides, the entries for the “Second Site kd” value in assay [8] and in assay [9] were 0.168 s⁻¹ and 0.00332 s⁻¹, respectively.

B2: PDL2-Fc (Fc fusion)
chain: LFTVTVPKELYIIEHGSNVTLECNFDTGSHVNLGAITASLQKVENDTSPHRERATLLEEQLPLGKASFHIPQVQVRDEGQYQCIIIYGVAWDYKYLTLKVKASYRKINTHILKVPETDEVELTCQATGYPLAEVSWPNVSVPANTSHSRTPEGLYQVTSVLRLKPPPGRNFSCVFWNTHVRELTLASIDLQSQMEPRTHPTLEPKSSDKTHTCPPCPAPEAAGAPSVFLFPPKPKDTLMISRTPEVTCVVVDVSHEDPEVKFNWYVDGVEVHNAKTKPREEQYNSTYRVVSVLTVLHQDWLNGKAYACAVSNKALPAPIEKTISKAKGQPREPQVYTLPPSRDELTKNQVSLTCLVKGFYPSDIAVEWESNGQPENNYKTTPPVLDSDGSFFLYSKLTVDKSRWQQGNVFSCSVMHEALHNHYTQKSLSLSPG
In assay [12], B2 came in with a koff of 0.00724 s⁻¹ and an on-rate (kon) of 165000 M⁻¹ s⁻¹. Also, the Kd in assay [13] worked out at 42 nM.

B3: xceptor including a CTLA4 ectodomain with the L104E A29Y mutations and an IL10 domain (Fc fusion)
chain: MHVAQPAVVLASSRGIASFVCEYASPGKYTEVRVTVLRQADSQVTEVCAATYMMGNELTFLDDSICTGTSSGNQVNLTIQGLRAMDTGLYICKVELMYPPPYYEGIGNGTQIYVIDPEPCPDSDLEPKSSDKTHTCPPCPAPEAAGAPSVFLFPPKPKDTLMISRTPEVTCVVVDVSHEDPEVKFNWYVDGVEVHNAKTKPREEQYNSTYRVVSVLTVLHQDWLNGKAYACAVSNKALPAPIEKTISKAKGQPREPQVYTLPPSRDELTKNQVSLTCLVKGFYPSDIAVEWESNGQPENNYKTTPPVLDSDGSFFLYSKLTVDKSRWQQGNVFSCSVMHEALHNHYTQKSLSLSPGQRHNNSSLNTGTQMAGHSPNSSPGQGTQSENSCTHFPGNLPNMLRDLRDAFSRVKTFFQMKDQLDNLLLKESLLEDFKGYLGCQALSEMIQFYLEEVMPQAENQDPDAKAHVNSLGENLKTLRLRLRRCHRFLPCENKSKAVEQVKNAFNKLQEKGIYKAMSEFDIFINYIEAYMTMKIRN
notes: as for B1
Regarding B3, the off-rate constant (koff) in assay [4] amounted to 0.00235 s⁻¹; in the assay with CD86-mIgG (Ancell, Inc) [6], 0.0091 s⁻¹; in [10] it was 0.0418 s⁻¹. The on-rate (kon) came to 90800 M⁻¹ s⁻¹ in assay [4]; 45100 M⁻¹ s⁻¹ in the assay with CD86-mIgG (Ancell, Inc) [6]; 32100 M⁻¹ s⁻¹ in assay [10]. Besides, the Kd worked out at 870 nM in assay [5]; 670 nM with CD86-mIgG (Ancell, Inc) [7]; 19.1 nM in assay [11]. The “Second Site ka” value was 0.00026 s⁻¹ in assay [8] and 0.00406 s⁻¹ in assay [9]. For the same molecule, the results for the “Second Site kd” value in [8] and in assay [9] were 0.00193 s⁻¹ and 0.00706 s⁻¹, respectively.

The values above are taken from patent US20120100139A1 (APTEVO RESEARCH AND DEVELOPMENT, published 2012).
